Reference: article PMC6614843, “Stability and sub-cellular localization of DNA polymerase β is regulated by interactions with NQO1 and XRCC1 in response to oxidative stress” (Nucleic Acids Research, 2019)

How the values were obtained:
[1] = target: Polβ(WT), purified recombinant (human, UniProt P06746 1-335); assay: SPR; OpenSPR localized SPR (Nicoya); Polβ(WT) or Polβ(T304I) covalently coupled (EDC/NHS) to a carboxyl sensor; XRCC1 injected at 10, 100 nM, 1, 2, 5 and 10 μM; 25 mM HEPES pH 8.0, 150 mM NaCl, 200 mM MgCl2, 0.1% Tween 20, 1 mM TCEP; KD from response versus concentration (affinity model); settings: both partners purified
[2] = target: Polβ(T304I), purified recombinant (human, UniProt P06746 1-335, T304I); assay: as above; settings: both partners purified

B1: NTD-XRCC1(1-151)-His (domain or fragment)
chain: MPEIRLRHVVSCSSQDSTHCAENLLKADTYRKWRAAKAGEKTISVVLQLEKEEQIHSVDIGNDGSAFVEVLVGSSAGGAGEQDYEVLLVTSSFMSPSESRSGSNPNRVRMFGPDKLVRAAAEKRWDRVKIVCSQPYSKDSPFGLSFVRFHS
notes: N-terminal domain of XRCC1, residues 1-151; human by the plasmid's name (hXRCC1); The name puts the His tag after the fragment; also called N-terminal fragment of XRCC1
In the case of B1, the binding result [1] is reported as “binds” and the “mean fold decrease of binding affinity (KD) against Polβ(WT)” value [2] is reported as 6.18 fold.
